Holding throughout (assay): potentiometry
Holding throughout (settings): 25 °C; I = 0.1 M (KNO3); samples in 96 mM KNO3/4 mM HNO3; none (96 mM KNO3/4 mM HNO3); Free peptide, no metal, under argon

The target in data set [1] is Asp3 (position 3, ---RHDSG---).
In data set [2] the target is His2 (position 2, ----RHDSG--).
Data set [3] deals with Nterm1 (position 1, -----RHDSG-).

B1: Amyloid-beta 5-9 peptide (Abeta5-9), Arg-His-Asp-Ser-Gly-NH2 (Homo sapiens (synthetic peptide)) (peptide)
chain: RHDSG
The pKa is the negative logarithm of the acid dissociation constant. A lower pKa goes with a group that gives up its proton readily. Take B1: the pKa turned out to be 3.17 in data set [1], 6.13 in data set [2] and 7.37 in data set [3].

The values above are taken from publication PMC8693174.
